Experimental data taken from US20190300618A1 (Merck Sharp & Dohme, published 2019).
Residue numbers refer to the chain shown, from its start.

What was measured:
Test in all cases: flow cytometry, CHO-K1; single column;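 also: CHO-K1 cells transiently transfected with hCD27 alanine mutant constructs, anti-hCD27 antibody binding measured by flow cytometry, 30 min at 4 °C, wild-type hCD27 binding taken as 100%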
H60A = target: T1, H60A
T1 construct: also called hCD27 H60A
T1 receptor: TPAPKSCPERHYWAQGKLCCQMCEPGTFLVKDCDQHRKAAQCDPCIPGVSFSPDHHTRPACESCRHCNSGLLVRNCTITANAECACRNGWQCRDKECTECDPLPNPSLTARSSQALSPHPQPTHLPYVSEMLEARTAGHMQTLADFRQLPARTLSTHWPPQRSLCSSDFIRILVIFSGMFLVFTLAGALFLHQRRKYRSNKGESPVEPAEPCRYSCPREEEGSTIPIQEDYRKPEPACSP
Method: (§1) The ability of several anti-hCD27 antibodies to bind to a series of hCD27 alanine mutants was determined using CHO-K1 cells, transiently transfected pCI-neo empty vector, pCI-neo.hCD27 and several pCI-neo.CD27Ala mutant constructs.
(§2) Detached cells were transferred to 96 wells round-bottomed well plates at approximately 1.2×10⁵ cells/well. After spinning down the cells, discarding the supernatants and re-suspending the cells in the residual volume, the primary antibodies were added and incubated for 30 minutes at 4° C. Cells were washed three times with DPBS/BSA 1%, followed by centrifugation, discarding of the supernatants and re-suspension in the residual volume. […] After washing once, antibody binding was detected using the HTS plate reader (FACS Canto II) and FlowJo software for data analysis. Debris, dead cells and doublets were excluded from the analysis. Binding was expressed as the geometric mean of the FITC signal, relative to antibody binding to hCD27, which was set at 100%.

Q15A = target: T2, Q15A
T2 construct: also called hCD27 Q15A
T2 receptor: T1 receptor with Q15A, A60H
Method: as §1, §2

D32A = target: T3, D32A
T3 construct: also called hCD27 D32A
T3 receptor: T1 receptor with D32A, A60H
Method: as §1, §2

R10A = target: T4, R10A
T4 construct: also called hCD27 R10A
T4 receptor: T1 receptor with R10A, A60H
Method: as §1, §2

D43A = target: T5, D43A
T5 construct: also called hCD27 D43A
T5 receptor: T1 receptor with D43A, A60H
Method: as §1, §2

G89A = target: T6, G89A
T6 construct: also called hCD27 G89A
T6 receptor: T1 receptor with A60H, G89A
Method: as §1, §2

V49A = target: T7, V49A
T7 construct: also called hCD27 V49A
T7 receptor: T1 receptor with V49A, A60H
Method: as §1, §2

K17A = target: T8, K17A
T8 construct: also called hCD27 K17A
T8 receptor: T1 receptor with K17A, A60H
Method: as §1, §2

I46A = target: T9, I46A
T9 construct: also called hCD27 I46A
T9 receptor: T1 receptor with I46A, A60H
Method: as §1, §2

F28A = target: T10, F28A
T10 construct: also called hCD27 F28A
T10 receptor: T1 receptor with F28A, A60H
Method: as §1, §2

B1: hCD27.15-6B (humanized hCD27.15, human IgG4, Clone 6B) (antibody, V domains shown)
VH: QVQLVQSGAEVKKPGASVKVSCKASGFIIKATYMHWVRQAPGQRLEWMGRIDPANGETKYDPKFQVRVTITADTSASTAYMELSSLRSEDTAVYYCARYAWYFDVWGQGTLVTVSS
VL: DIQMTQSPSSLSASVGDRVTITCRASENIYSFLAWYQQKPGKAPKLLIYHAKTLAEGVTSRFSGSGSGTDFTLTISSLQPEDSATYYCQHYYGSPLTFGQGTRLEIKR
notes: humanized version of hCD27.15 from WO2012/004367 with identical CDR regions; also called hCD27.15 (humanized 6B); hCD27.15 6B humanized antibody
Q: Which results are given for B1?
A: % of WT hCD27 binding (geo mean FITC) (H60A): 82.6%; % of WT hCD27 binding (geo mean FITC) (Q15A): 98.6%; % of WT hCD27 binding (geo mean FITC) (D32A): 50.6%; % of WT hCD27 binding (geo mean FITC) (R10A): 58.9%; % of WT hCD27 binding (geo mean FITC) (D43A): 31%; % of WT hCD27 binding (geo mean FITC) (G89A): 97.4%; % of WT hCD27 binding (geo mean FITC) (V49A): 69%; % of WT hCD27 binding (geo mean FITC) (K17A): 120%; % of WT hCD27 binding (geo mean FITC) (I46A): 81.9%; % of WT hCD27 binding (geo mean FITC) (F28A): 59.4%
